Assay results as given in publication PMC4209800.

How the values were obtained:
[1] = target: human FcγRIIIa of allotype 158F, GPI-anchored (human) (UniProt P08637); experiment: flow cytometry on cells; IgG pre-complexed with equimolar goat F(ab')2 against its light chain (anti-κ for Fog-1, anti-λ for B2), on CHO cells expressing a single human FcγRII or FcγRIII; complexes detected with FITC anti-goat IgG; mean fluorescence of ≥12 000 cells
[2] = target: human FcγRIIIa of allotype 158V, GPI-anchored (human); experiment: as above

Chain of UniProt P08637 (P08637 17-254): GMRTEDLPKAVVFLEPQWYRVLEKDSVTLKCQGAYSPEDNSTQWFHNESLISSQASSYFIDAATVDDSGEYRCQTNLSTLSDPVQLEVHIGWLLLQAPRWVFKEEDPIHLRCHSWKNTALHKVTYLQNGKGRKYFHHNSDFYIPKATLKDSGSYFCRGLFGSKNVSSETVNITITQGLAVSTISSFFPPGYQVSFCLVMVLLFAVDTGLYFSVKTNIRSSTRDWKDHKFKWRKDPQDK

fold lower binding than G1 [1]: 100 fold
fold lower binding than G1 [2]: 50 fold
Substance: B2 G1Δnab (antibody)
